B1: COPA (protein, UniProt P53621 1-1224, looked up)
Coatomer subunit alpha: MLTKFETKSARVKGLSFHPKRPWILTSLHNGVIQLWDYRMCTLIDKFDEHDGPVRGIDFHKQQPLFVSGGDDYKIKVWNYKLRRCLFTLLGHLDYIRTTFFHHEYPWILSASDDQTIRVWNWQSRTCVCVLTGHNHYVMCAQFHPTEDLVVSASLDQTVRVWDISGLRKKNLSPGAVESDVRGITGVDLFGTTDAVVKHVLEGHDRGVNWAAFHPTMPLIVSGADDRQVKIWRMNESKAWEVDTCRGHYNNVSCAVFHPRQELILSNSEDKSIRVWDMSKRTGVQTFRRDHDRFWVLAAHPNLNLFAAGHDGGMIVFKLERERPAYAVHGNMLHYVKDRFLRQLDFNSSKDVAVMQLRSGSKFPVFNMSYNPAENAVLLCTRASNLENSTYDLYTIPKDADSQNPDAPEGKRSSGLTAVWVARNRFAVLDRMHSLLIKNLKNEITKKVQVPNCDEIFYAGTGNLLLRDADSITLFDVQQKRTLASVKISKVKYVIWSADMSHVALLAKHAIVICNRKLDALCNIHENIRVKSGAWDESGVFIYTTSNHIKYAVTTGDHGIIRTLDLPIYVTRVKGNNVYCLDRECRPRVLTIDPTEFKFKLALINRKYDEVLHMVRNAKLVGQSIIAYLQKKGYPEVALHFVKDEKTRFSLALECGNIEIALEAAKALDDKNCWEKLGEVALLQGNHQIVEMCYQRTKNFDKLSFLYLITGNLEKLRKMMKIAEIRKDMSGHYQNALYLGDVSERVRILKNCGQKSLAYLTAATHGLDEEAESLKETFDPEKETIPDIDPNAKLLQPPAPIMPLDTNWPLLTVSKGFFEGTIASKGKGGALAADIDIDTVGTEGWGEDAELQLDEDGFVEATEGLGDDALGKGQEEGGGWDVEEDLELPPELDISPGAAGGAEDGFFVPPTKGTSPTQIWCNNSQLPVDHILAGSFETAMRLLHDQVGVIQFGPYKQLFLQTYARGRTTYQALPCLPSMYGYPNRNWKDAGLKNGVPAVGLKLNDLIQRLQLCYQLTTVGKFEEAVEKFRSILLSVPLLVVDNKQEIAEAQQLITICREYIVGLSVETERKKLPKETLEQQKRICEMAAYFTHSNLQPVHMILVLRTALNLFFKLKNFKTAATFARRLLELGPKPEVAQQTRKILSACEKNPTDAYQLNYDMHNPFDICAASYRPIYRGKPVEKCPLSGACYSPEFKGQICRVTTVTEIGKDVIGLRISPLQFR
B2: MYO1B (protein, UniProt O43795 1-1136, looked up)
Unconventional myosin-Ib: MAKMEVKTSLLDNMIGVGDMVLLEPLNEETFINNLKKRFDHSEIYTYIGSVVISVNPYRSLPIYSPEKVEEYRNRNFYELSPHIFALSDEAYRSLRDQDKDQCILITGESGAGKTEASKLVMSYVAAVCGKGAEVNQVKEQLLQSNPVLEAFGNAKTVRNDNSSRFGKYMDIEFDFKGDPLGGVISNYLLEKSRVVKQPRGERNFHVFYQLLSGASEELLNKLKLERDFSRYNYLSLDSAKVNGVDDAANFRTVRNAMQIVGFMDHEAESVLAVVAAVLKLGNIEFKPESRVNGLDESKIKDKNELKEICELTGIDQSVLERAFSFRTVEAKQEKVSTTLNVAQAYYARDALAKNLYSRLFSWLVNRINESIKAQTKVRKKVMGVLDIYGFEIFEDNSFEQFIINYCNEKLQQIFIELTLKEEQEEYIREDIEWTHIDYFNNAIICDLIENNTNGILAMLDEECLRPGTVTDETFLEKLNQVCATHQHFESRMSKCSRFLNDTSLPHSCFRIQHYAGKVLYQVEGFVDKNNDLLYRDLSQAMWKASHALIKSLFPEGNPAKINLKRPPTAGSQFKASVATLMKNLQTKNPNYIRCIKPNDKKAAHIFNEALVCHQIRYLGLLENVRVRRAGYAFRQAYEPCLERYKMLCKQTWPHWKGPARSGVEVLFNELEIPVEEYSFGRSKIFIRNPRTLFKLEDLRKQRLEDLATLIQKIYRGWKCRTHFLLMKKSQIVIAAWYRRYAQQKRYQQTKSSALVIQSYIRGWKARKILRELKHQKRCKEAVTTIAAYWHGTQARRELRRLKEEARNKHAIAVIWAYWLGSKARRELKRLKEEARRKHAVAVIWAYWLGLKVRREYRKFFRANAGKKIYEFTLQRIVQKYFLEMKNKMPSLSPIDKNWPSRPYLFLDSTHKELKRIFHLWRCKKYRDQFTDQQKLIYEEKLEASELFKDKKALYPSSVGQPFQGAYLEINKNPKYKKLKDAIEEKIIIAEVVNKINRANGKSTSRIFLLTNNNLLLADQKSGQIKSEVPLVDVTKVSMSSQNDGFFAVHLKEGSEAASKGDFLFSSDHLIEMATKLYRTTLSQTKQKLNIEISDEFLVQFRQDKVCVKFIQGNQKNGSVPTCKRKNNRLLEVAVP
B3: ATXN2 (protein, UniProt Q99700 1-1313, looked up)
Ataxin-2: MRSAAAAPRSPAVATESRRFAAARWPGWRSLQRPARRSGRGGGGAAPGPYPSAAPPPPGPGPPPSRQSSPPSASDCFGSNGNGGGAFRPGSRRLLGLGGPPRPFVVLLLPLASPGAPPAAPTRASPLGARASPPRSGVSLARPAPGCPRPACEPVYGPLTMSLKPQQQQQQQQQQQQQQQQQQQQQQQPPPAAANVRKPGGSGLLASPAAAPSPSSSSVSSSSATAPSSVVAATSGGGRPGLGRGRNSNKGLPQSTISFDGIYANMRMVHILTSVVGSKCEVQVKNGGIYEGVFKTYSPKCDLVLDAAHEKSTESSSGPKREEIMESILFKCSDFVVVQFKDMDSSYAKRDAFTDSAISAKVNGEHKEKDLEPWDAGELTANEELEALENDVSNGWDPNDMFRYNEENYGVVSTYDSSLSSYTVPLERDNSEEFLKREARANQLAEEIESSAQYKARVALENDDRSEEEKYTAVQRNSSEREGHSINTRENKYIPPGQRNREVISWGSGRQNSPRMGQPGSGSMPSRSTSHTSDFNPNSGSDQRVVNGGVPWPSPCPSPSSRPPSRYQSGPNSLPPRAATPTRPPSRPPSRPSRPPSHPSAHGSPAPVSTMPKRMSSEGPPRMSPKAQRHPRNHRVSAGRGSISSGLEFVSHNPPSEAATPPVARTSPSGGTWSSVVSGVPRLSPKTHRPRSPRQNSIGNTPSGPVLASPQAGIIPTEAVAMPIPAASPTPASPASNRAVTPSSEAKDSRLQDQRQNSPAGNKENIKPNETSPSFSKAENKGISPVVSEHRKQIDDLKKFKNDFRLQPSSTSESMDQLLNKNREGEKSRDLIKDKIEPSAKDSFIENSSSNCTSGSSKPNSPSISPSILSNTEHKRGPEVTSQGVQTSSPACKQEKDDKEEKKDAAEQVRKSTLNPNAKEFNPRSFSQPKPSTTPTSPRPQAQPSPSMVGHQQPTPVYTQPVCFAPNMMYPVPVSPGVQPLYPIPMTPMPVNQAKTYRAVPNMPQQRQDQHHQSAMMHPASAAGPPIAATPPAYSTQYVAYSPQQFPNQPLVQHVPHYQSQHPHVYSPVIQGNARMMAPPTHAQPGLVSSSATQYGAHEQTHAMYACPKLPYNKETSPSFYFAISTGSLAQQYAHPNATLHPHTPHPQPSATPTGQQQSQHGGSHPAPSPVQHHQHQAAQALHLASPQQQSAIYHAGLAPTPPSMTPASNTQSPQNSFPAAQQTVFTIHPSHVQPAYTNPPHMAHVPQAHVQSGMVPSHPTAHAPMMLMTTQPPGGPQAALAQSALQPIPVSTTAHFPYMTHPSVQAHHQQQL
B4: CPM (protein, UniProt P14384 18-423, looked up)
Carboxypeptidase M: LDFNYHRQEGMEAFLKTVAQNYSSVTHLHSIGKSVKGRNLWVLVVGRFPKEHRIGIPEFKYVANMHGDETVGRELLLHLIDYLVTSDGKDPEITNLINSTRIHIMPSMNPDGFEAVKKPDCYYSIGRENYNQYDLNRNFPDAFEYNNVSRQPETVAVMKWLKTETFVLSANLHGGALVASYPFDNGVQATGALYSRSLTPDDDVFQYLAHTYASRNPNMKKGDECKNKMNFPNGVTNGYSWYPLQGGMQDYNYIWAQCFEITLELSCCKYPREEKLPSFWNNNKASLIEYIKQVHLGVKGQVFDQNGNPLPNVIVEVQDRKHICPYRTNKYGEYYLLLLPGSYIINVTVPGHDPHITKVIIPEKSQNFSALKKDILLPFQGQLDSIPVSNPSCPMIPLYRNLPDHS
B5: OSBPL8 (protein, UniProt Q9BZF1 1-889, looked up)
Oxysterol-binding …: MEGGLADGEPDRTSLLGDSKDVLGPSTVVANSDESQLLTPGKMSQRQGKEAYPTPTKDLHQPSLSPASPHSQGFERGKEDISQNKDESSLSMSKSKSESKLYNGSEKDSSTSSKLTKKESLKVQKKNYREEKKRATKELLSTITDPSVIVMADWLKIRGTLKSWTKLWCVLKPGVLLIYKTQKNGQWVGTVLLNACEIIERPSKKDGFCFKLFHPLEQSIWAVKGPKGEAVGSITQPLPSSYLIIRATSESDGRCWMDALELALKCSSLLKRTMIREGKEHDLSVSSDSTHVTFYGLLRANNLHSGDNFQLNDSEIERQHFKDQDMYSDKSDKENDQEHDESDNEVMGKSEESDTDTSERQDDSYIEPEPVEPLKETTYTEQSHEELGEAGEASQTETVSEENKSLIWTLLKQVRPGMDLSKVVLPTFILEPRSFLDKLSDYYYHADFLSEAALEENPYFRLKKVVKWYLSGFYKKPKGLKKPYNPILGETFRCLWIHPRTNSKTFYIAEQVSHHPPISAFYVSNRKDGFCLSGSILAKSKFYGNSLSAILEGEARLTFLNRGEDYVMTMPYAHCKGILYGTMTLELGGTVNITCQKTGYSAILEFKLKPFLGSSDCVNQISGKLKLGKEVLATLEGHWDSEVFITDKKTDNSEVFWNPTPDIKQWRLIRHTVKFEEQGDFESEKLWQRVTRAINAKDQTEATQEKYVLEEAQRQAARDRKTKNEEWSCKLFELDPLTGEWHYKFADTRPWDPLNDMIQFEKDGVIQTKVKHRTPMVSVPKMKHKPTRQQKKVAKGYSSPEPDIQDSSGSEAQSVKPSTRRKKGIELGDIQSSIESIKQTQEEIKRNIMALRNHLVSSTPATDYFLQQKDYFIIFLLILLQVIINFMFK

How the values were obtained:
[1] = test system: GFP-14-3-3β and its binding proteins; test: GFP-14-3-3β co-IP with LC-MS/MS label-free quantification, untreated versus PP1c-treated; parameters: species or system human; details: PP1 vs untreated; LFQ intensities; 3 replicates each
[2] = test system: GFP-14-3-3β; test: GFP-14-3-3β co-IP with LC-MS/MS, untreated GFP-14-3-3β versus GFP control (14-3-3 interactome); assay type: binding, human; details: untreated vs GFP; LFQ intensities; 3 replicates each

Row | Molecule | Difference (log2), PP1 vs untreated [1] | Difference (log2), untreated vs GFP [2]
1 | B1 | 0.5643 log2 | -0.09761 log2
2 | B2 | 0.5838 log2 | -1.083 log2
3 | B3 | 0.5906 log2 | 1.35 log2
4 | B4 | 0.5874 log2 | -1.988 log2
5 | B5 | 0.5791 log2 | 0.9951 log2

From paper PMC7367873, “Dissecting the sequence determinants for dephosphorylation by the catalytic subunits of phosphatases PP1 and PP2A” (Nature Communications, 2020)
